Results as given in patent US20250205353A1 (SYNAFFIX B V, published 2025).

T1: Nectin-4 on SK-BR-3 cells (UniProt Q96NY8 32-510, limits assumed)
T1 sequence (looked up): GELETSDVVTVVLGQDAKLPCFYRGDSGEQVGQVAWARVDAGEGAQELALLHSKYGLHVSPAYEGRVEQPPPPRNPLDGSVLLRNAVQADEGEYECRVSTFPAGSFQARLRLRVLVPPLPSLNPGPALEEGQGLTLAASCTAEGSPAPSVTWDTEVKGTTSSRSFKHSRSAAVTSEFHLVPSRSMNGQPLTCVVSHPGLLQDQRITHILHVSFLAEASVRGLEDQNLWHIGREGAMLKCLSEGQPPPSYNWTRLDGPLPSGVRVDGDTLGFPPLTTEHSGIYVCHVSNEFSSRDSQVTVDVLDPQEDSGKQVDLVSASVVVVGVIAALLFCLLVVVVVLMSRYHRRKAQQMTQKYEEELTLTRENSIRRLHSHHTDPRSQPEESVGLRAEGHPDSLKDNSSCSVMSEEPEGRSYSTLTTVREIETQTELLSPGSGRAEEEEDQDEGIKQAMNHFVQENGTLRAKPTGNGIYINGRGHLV

T2: Human Nectin-4 (PVRL4 Protein, ECD, His Tag) (human, UniProt Q96NY8 32-349)
T2 construct: extracellular domain; Recombinant protein captured on nickel NTA plates; also called hNectin-4; PVRL4-His; not shown: His tag
T2 sequence (looked up): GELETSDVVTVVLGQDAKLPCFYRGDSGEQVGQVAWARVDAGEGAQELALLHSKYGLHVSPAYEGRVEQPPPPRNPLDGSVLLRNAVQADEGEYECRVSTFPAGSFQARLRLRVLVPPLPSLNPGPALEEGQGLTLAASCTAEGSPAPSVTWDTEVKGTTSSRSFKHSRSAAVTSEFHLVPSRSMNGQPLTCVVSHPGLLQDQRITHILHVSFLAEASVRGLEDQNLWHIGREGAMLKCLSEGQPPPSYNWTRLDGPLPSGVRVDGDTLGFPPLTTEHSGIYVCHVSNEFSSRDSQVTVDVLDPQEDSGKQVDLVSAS


What was measured:
[1] = target: T1, Nectin-4 on SK-BR-3 cells; test: cell-based or functional assay
[2] = target: T2, Human Nectin-4 (PVRL4 Protein, ECD, His …); test: ELISA; His-tagged Nectin-4 ECD on nickel NTA plates, detection with anti-human IgG-HRP
Procedure: Nickel NTA plates (Pierce™ Nickel coated plated, ThermoScientific™) were washed three times prior to use. Human Nectin-4 (PVRL4 Protein, ECD, His Tag) was dissolved at a concentration of […] in 0.1% BSA in PBS (PBA). 100 μL was added to each well and incubated while shaking for 1 hour at room temperature. After removal, the plate was washed 3x with 0.05% Tween-20 in PBS (washing buffer). ADCs were diluted in 0.1% PBA to a final concentration of 8 μg/mL and 100 μL was added to each well (in triplo). ADCs were incubated for 1 h at room temperature. Prior to the addition of 100 μL 1:1000 dilution of secondary antibody (Goat anti-human IgG, HRP conjugate, Invitrogen) the plate was washed 3x with washing buffer. The plate was incubated again for 1 h at room temperature and subsequently washed 3x with washing buffer and 3x with PBS. Finally, 100 μL TMB ELISA substrate (1 Step™ Turbo TMB ELISA substrate, ThermoScientific™) was added and incubated for 1 minute. The absorbance of the colorimetric signal was measured with Infinite® M1000 (Tecan) at 652 nm. Data was plotted corrected for the background (see FIG. 8).

Row | Binder | IC50 (nM), in vitro cytotoxicity on SK-BR-3 cells (ATPlite luminescence) [1] | binding result [2]
1 | Enfortumab YTE-4 (other, linker-payload 4 (BCN-HS-(vc-PABC-MMAE)2) clicked to 6-N3-GalNAc on the trimmed core GlcNAc of the heavy-chain glycan; average DAR 3.67) heavy: EVQLVESGGGLVQPGGSLRLSCAASGFTFSSYNMNWVRQAPGKGLEWVSYISSSSSTIYYADSVKGRFTISRDNAKNSLSLQMNSLRDEDTAVYYCARAYYYGMDVWGQGTTVTVSSASTKGPSVFPLAPSSKSTSGGTAALGCLVKDYFPEPVTVSWNSGALTSGVHTFPAVLQSSGLYSLSSVVTVPSSSLGTQTYICNVNHKPSNTKVDKRVEPKSCDKTHTCPPCPAPELLGGPSVFLFPPKPKDTLYITREPEVTCVVVDVSHEDPEVKFNWYVDGVEVHNAKTKPREEQYNSTYRVVSVLTVLHQDWLNGKEYKCKVSNKALPAPIEKTISKAKGQPREPQVYTLPPSREEMTKNQVSLTCLVKGFYPSDIAVEWESNGQPENNYKTTPPVLDSDGSFFLYSKLTVDKSRWQQGNVFSCSVMHEALHNHYTQKSLSLSPGK light: DIQMTQSPSSVSASVGDRVTITCRASQGISGWLAWYQQKPGKAPKFLIYAASTLQSGVPSRFSGSGSGTDFTLTISSLQPEDFATYYCQQANSFPPTFGGGTKVEIKRTVAAPSVFIFPPSDEQLKSGTASVVCLLNNFYPREAKVQWKVDNALQSGNSQESVTEQDSKDSTYSLSSTLTLSKADYEKHKVYACEVTHQGLSSPVTKSFNRGEC | 0.05 nM | 
2 | enfortumab (I) (antibody, human IgG1, kappa, IgG transiently expressed in CHO K1 cells; also called Ha22-2(2,4)6.1) heavy: not shown light: DIQMTQSPSSVSASVGDRVTITCRASQGISGWLAWYQQKPGKAPKFLIYAASTLQSGVPSRFSGSGSGTDFTLTISSLQPEDFATYYCQQANSFPPTFGGGTKVEIKRTVAAPSVFIFPPSDEQLKSGTASVVCLLNNFYPREAKVQWKVDNALQSGNSQESVTEQDSKDSTYSLSSTLTLSKADYEKHKVYACEVTHQGLSSPVTKSFNRGEC |  | binds
3 | enfortumab YTE (II) (antibody, human IgG1, kappa, also called enfortumab YTE mutant) heavy: EVQLVESGGGLVQPGGSLRLSCAASGFTFSSYNMNWVRQAPGKGLEWVSYISSSSSTIYYADSVKGRFTISRDNAKNSLSLQMNSLRDEDTAVYYCARAYYYGMDVWGQGTTVTVSSASTKGPSVFPLAPSSKSTSGGTAALGCLVKDYFPEPVTVSWNSGALTSGVHTFPAVLQSSGLYSLSSVVTVPSSSLGTQTYICNVNHKPSNTKVDKRVEPKSCDKTHTCPPCPAPELLGGPSVFLFPPKPKDTLYITREPEVTCVVVDVSHEDPEVKFNWYVDGVEVHNAKTKPREEQYNSTYRVVSVLTVLHQDWLNGKEYKCKVSNKALPAPIEKTISKAKGQPREPQVYTLPPSREEMTKNQVSLTCLVKGFYPSDIAVEWESNGQPENNYKTTPPVLDSDGSFFLYSKLTVDKSRWQQGNVFSCSVMHEALHNHYTQKSLSLSPGK light: DIQMTQSPSSVSASVGDRVTITCRASQGISGWLAWYQQKPGKAPKFLIYAASTLQSGVPSRFSGSGSGTDFTLTISSLQPEDFATYYCQQANSFPPTFGGGTKVEIKRTVAAPSVFIFPPSDEQLKSGTASVVCLLNNFYPREAKVQWKVDNALQSGNSQESVTEQDSKDSTYSLSSTLTLSKADYEKHKVYACEVTHQGLSSPVTKSFNRGEC |  | binds
